Data set [1] has as its system myc-tagged CHO cell-expressed CTHRC1.
In data set [2] the test system is His-tagged CTHRC1 expressed in Chinese hamster ovary cells (CHO).

As for MMP-7, the “cleavage of CTHRC1 (immunoblot after digestion)” value in data set [1] is “MMP-7 and thrombin do not cleave CTHRC1”.
Consider “highly purified bacterial collagenase (VII, Sigma)”, for which, in data set [2], the “cleavage of CTHRC1 (immunoblot after digestion)” value is given as “highly purified bacterial collagenase (Sigma) (FIG. 30), as well as MMP-1 (FIG. 31) cleave CTHRC1 near the N terminus”.
For the substance matrix metalloprotease 1 (MMP-1), the “cleavage of CTHRC1 (immunoblot after 15 and 60 minutes digest)” value in data set [1] is “MMP-1 (FIG. 31) cleave CTHRC1 near the N terminus”.
As to thrombin, in data set [1], the “cleavage of CTHRC1 (immunoblot after digestion)” value was “MMP-7 and thrombin do not cleave CTHRC1”.

For the origin of these results see US20050147602.
